Source: patent publication US20260167959A1, “APTAZYME-BASED REGULATABLE GENE EXPRESSION SYSTEMS” (REJUVENATE BIO INC, priority 2022, published 2026)

B1: RA309 (nucleic acid)
DNA: GCGCGAGAATACCAGCATCGTCTTGATGCCCTTGGAAGTCTTCCTGGATTCGCGGAAACGCGTACATCCAGCTGACGAGTCCCAAATAGGACGAAACGCGC
modifications: expressed or natural sequence
B2: RA310 (nucleic acid)
DNA: GCGCGTCCTGGATTCGCGGAAACGCGTACATCCAGCTGACGAGTCCCAAATAGAATACCAGCATCGTCTTGATGCCCTTGGAAGTCTAGGACGAAACGCGC
modifications: expressed or natural sequence
B3: RA311 (nucleic acid)
DNA: GCGCGTCCTGGATTCGCGGAAACGCGTCGAGAATACCAGCATCGTCTTGATGCCCTTGGAAGTCTCGACATCCAGCTGACGAGTCCCAAATAGGACGAAACGCGC
modifications: expressed or natural sequence
B4: RA312 (nucleic acid)
DNA: GCGCGTCCTGGATTCGCGGAAACGCGTACATCCAGCTGACGAGGAATACCAGCATCGTCTTGATGCCCTTGGAAGTCCGTCCCAAATAGGACGAAACGCGC
modifications: expressed or natural sequence
B5: RA313 (nucleic acid)
DNA: GCGCGTCCTGGATTCGCGGAAACGCGTACATCCAGCTGACGAGTCCCAACGGAATACCAGCATCGTCTTGATGCCCTTGGAAGTCCGATAGGACGAAACGCGC
modifications: expressed or natural sequence
B6: RA314 (nucleic acid)
DNA: GCGCGTCCTGGATTCGCGGAAACGCGTACATCCAGCTGACGAGTCCCAAATAGGGAATACCAGCATCGTCTTGATGCCCTTGGAAGTCCGACGAAACGCGC
modifications: expressed or natural sequence
B7: RA315 (nucleic acid)
DNA: GCGCGTCCTGGATTCGCGGAAACGCGTACATCCAGCTGACGAGTCCCAAATAGGACGAACGAGAATACCAGCATCGTCTTGATGCCCTTGGAAGTCTCGACGCGC
modifications: expressed or natural sequence
B8: RA316 (nucleic acid)
DNA: GCGCGTCCTGGATGGAATACCAGCATCGTCTTGATGCCCTTGGAAGTCCTCGCGGAAACGCGTACATCCAGCTGACGAGTCCCAAATAGGACAAAACGCGC
modifications: expressed or natural sequence
B9: RA317 (nucleic acid)
DNA: GCGCGTCCTGGATTCGCGGAAACGCGTACATCCAGCTGACGAGTCCCAAATAGCCGGAATACCAGCATCGTCTTGATGCCCTTGGAAGTCCGGGACGAAACGCGC
modifications: expressed or natural sequence
B10: RA318 (nucleic acid)
DNA: GCGGAATACCAGCATCGTCTTGATGCCCTTGGAAGTCCGCGCGTCCTGGATTCGCGGAAACGCGTACATCCAGCTGACGAGTCCCAAATAGGACGAAACGCGC
modifications: expressed or natural sequence
B11: RA319 (nucleic acid)
DNA: GCGCGTCCTGGATTCGCGGAAACGCGTACAGAGAATACCAGCATCGTCTTGATGCCCTTGGAAGTCTCTCCAGCTGACGAGTCCCAAATAGGACGAAACGCGC
modifications: expressed or natural sequence
B12: RA320 (nucleic acid)
DNA: GCGCGTCCTGGATTCGCGGAAACGCGTACATCCAGCTGACGAGTAGTGATACCAGCATCGTCTTGATGCCCTTGGCAGCACTCCCAAATAGGACGAAACGCGC
modifications: expressed or natural sequence
B13: RA321 (nucleic acid)
DNA: GCGCGTCCTGGATTCGCGGAAACGCGTACATCCAGCTAGTGATACCAGCATCGTCTTGATGCCCTTGGCAGCACTGACGAGTCCCAAATAGGACGAAACGCGC
modifications: expressed or natural sequence
B14: RA322 (nucleic acid)
DNA: GCGCGTCCTGGATTCGCGGAGAATACCAGCATCGTCTTGATGCCCTTGGAAGTCTAAACGCGTACATCCAGCTGACGAGTCCCAAATAGGACGAAACGCGC
modifications: expressed or natural sequence
B15: RA323 (nucleic acid)
DNA: GCGCGTCCTGGATTCGCGCGGAATACCAGCATCGTCTTGATGCCCTTGGAAGTCCGGAAACGCGTACATCCAGCTGACGAGTCCCAAATAGGACGAAACGCGC
modifications: expressed or natural sequence
B16: RA324 (nucleic acid)
DNA: GCGCGTCCTGGATTCGCGGAAACCGGAATACCAGCATCGTCTTGATGCCCTTGGAAGTCCGGCGTACATCCAGCTGACGAGTCCCAAATAGGACGAAACGCGC
modifications: expressed or natural sequence
B17: RA325 (nucleic acid)
DNA: GCGCGTCCTGGATTCGCGGAAACGCGTACATCCAGCTGACGAGTCCCAAATAGGAGGAATACCAGCATCGTCTTGATGCCCTTGGAAGTCCCAAAACGCGC
modifications: expressed or natural sequence
B18: RA326 (nucleic acid)
DNA: GCTGTCACCGGAATACCAGCATCGTCTTGATGCCCTTGGAAGTCCGGTCTGATGAGTCCCTTGAGGACGAAACAGC
modifications: expressed or natural sequence
B19: RA327 (nucleic acid)
DNA: GCGCGTCCTGGATTCGCGGAAACGCGTAGTGATACCAGCATCGTCTTGATGCCCTTGGCAGCACTACATCCAGCTGACGAGTCCCAAATAGGACGAAACGCGC
modifications: expressed or natural sequence
B20: RA328 (nucleic acid)
DNA: GCGCGTCCTGGATTCGCGGAAACGCGTACATCCAGCTGACAGTGATACCAGCATCGTCTTGATGCCCTTGGCAGCACTGAGTCCCAAATAGGACGAAACGCGC
modifications: expressed or natural sequence
B21: RA031 (nucleic acid)
DNA: GCGCGTCCGAGAATACCAGCATCGTCTTGATGCCCTTGGAAGTCTCTGGATTCGCGGAAACGCGTACATCCAGCTGACGAGTCCCAAATAGGACGAAACGCGC
modifications: expressed or natural sequence

What follows are molecules tested on Renilla luciferase RNA (assay: Barcoded aptazyme variant library screen: un-cleaved Renilla luciferase RNA by barcode read counts, HEK293-T cells). Conditions: un-cleaved Renilla luciferase RNA by barcode read counts; with 1 mM theophylline (ON) over without theophylline (OFF); HEK293-T cells; triplicate.
Type: cell-based
How it was run: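 Barcode sequencing of cDNA versus DNA, normalized per aptazyme, gave the un-cleaved Renilla luciferase RNA fraction and fold-change with versus without theophylline (triplicates). Library: T3H48 ribozyme with one of seven theophylline aptamer variants inserted at each position, placed in the Renilla 3′ UTR of a dual-luciferase vector.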

In order of rising “Fold change in RNA expression between the ON state and the OFF state” value:
1. B8  0.9
2. B9  0.9
3. B10  0.9
4. B11  0.9
5. B12  0.9
6. B13  0.9
7. B14  0.9
8. B15  0.9
9. B16  0.9
10. B17  0.9
11. B18  0.9
12. B19  0.9
13. B20  0.9
14. B1  1.0
15. B2  1.0
16. B3  1.0
17. B4  1.0
18. B5  1.0
19. B6  1.0
20. B7  1.0

Same assay, conditions: un-cleaved Renilla luciferase RNA, HEK293-T cells cultured with 1 mM theophylline (ON) over without theophylline (OFF); barcode read counts, triplicate

For B21, the “Fold change in RNA expression between the ON state and the OFF state” value was 2.3 fold.
